Source: US12162924B2, “Method for the design of fibrillar collagen-mimetic peptide self-assemblies” (WISCONSIN ALUMNI RESEARCH FOUNDATION, priority 2016, dated 2024)
“And” between values parts separate entries of the source, which are not always exact repeats. Equal values may be shown once. Non-standard residues stand in square brackets, D forms with d. No end group written: not given here. Hyp = O=C(O)[C@@H]1C[C@@H](O)CN1; Orn = NCCC[C@H](N)C(=O)O

Assays:
Assay type in all cases: physicochemical
[1] = Rheology of peptide hydrogels / hydrogel formation
Protocol: This solution is placed in an airtight container, heated to 65° C. in a large water bath and annealed down to room temperature, overnight. The resulting hydrogel is subjected to rheological analysis (FIG. 15a).
Rheology on peptide hydrogels was performed on a TA ARES rheometer at the Soft Materials Laboratory at the University of Wisconsin—Madison, using 8-mm stainless-steel parallel-plate geometry with a 1 mm gap size. Strain sweeps (0.01-200%) maintained a fixed frequency of 2 rad/s, while a fixed strain of 1% was applied for frequency sweeps (0.1-100 rad/s).

[2] = CD thermal denaturation (melting temperature of triple-helical assemblies); conditions: for Tm (° C.): Table 2, constructs that self-assemble
Protocol: All CD data were acquired with a 202SF or 420 CD spectrophotometer from Aviv Biomedical (Lakewood, N.J.) at the UW BIF. Samples were prepared at a concentration of 0.6 mg/mL (˜160 μM) in 10 mM sodium phosphate buffer, pH 7.0, both with and without NaCl (180 mM). CD spectra were recorded at 4° C. with a 1-nm band-pass in quartz cuvettes with a 0.1-cm pathlength, using an averaging time of 4 s. For thermal denaturation experiments the CD signal was monitored at 226 nm while the sample was heated at a rate of 12° C./h in 2- or 3-° C. steps. The melting transition is indicated by a minimum on the temperature derivative of the melting curve (∂[θ]/∂T), and values (±1° C.) of melting temperature (Tm) were determined assuming constant curvature in the immediate vicinity of the transition minimum.

[3] = Tapping-mode atomic force microscopy on mica; conditions: annealed at 0.03 mg/mL, freshly cleaved mica
Protocol: Peptide samples were annealed at 0.03 mg/mL in 10 mM sodium phosphate buffer, pH 7.0, and applied onto freshly cleaved mica at 4° C. After 10 min, the solution of peptide was washed with cold water for 30 s, and excess water was removed with a filter paper. Samples were dried at 4° C. overnight prior to imaging. AFM images were collected in tapping mode with an Agilent 5500 SPM instrument using NCHV-A probes from Bruker (Billerica, Mass.). Data were analyzed with Gwyddion ver. 2.39 software (gwyddion.net).
Although the softness of the material led to artifacts and necessitated frequent use of fresh probes, the images clearly and consistently present the self-assembled OKD nanofibers.

[4] = Negative-stained (dry) TEM imaging of peptide assemblies; conditions: for Feature dimensions (nm), nanofiber diameter by TEM: dried, negative-stained, mean±SD
Protocol: (§1) All imaging was performed with a Tecnai TF-30 TEM instrument (300 kV) from FEI (Hillsboro, Oreg.) at the UW Materials Science Center (MSC; msc.engr.wisc.edu). Samples were prepared on Quantifoil R1.2/1.3 holey-carbon mesh on copper grids. Sample preparation for dry TEM was carried out at 4° C. Samples were negative-stained using freshly prepared 2.0% w/w PTA solution adjusted to pH 6 with aqueous NaOH and filtered. The peptide solution was allowed to adhere to the carbon-mesh side of the grid for 1 min, at which point excess solution was blotted with filter paper, and the grid was allowed to dry for 5 min. Negative stain was applied for 10 min by inverting the grid on a drop of PTA solution. Excess stain was removed with filter paper, and the grid was allowed to dry overnight prior to imaging. For vitreous ice cryo-TEM imaging, a solution of OKD (0.3 mg/mL) was applied to a TEM grid, glow discharged for 0.5 min at 25 mA beforehand with a Pelco easiGlow unit from Ted Pella (Redding, Calif.). The grid was allowed to equilibrate at 5° C. at 95% humidity. A drop of peptide solution was added, and the grid was then blotted and immersed in liquid ethane on a Vitrobot from FEI. The grid was transferred from liquid ethane to liquid nitrogen manually, and was stored in liquid nitrogen until imaging. Acquisition was performed at −180° C. with low dose and long exposures.

[5] = Vitreous ice cryo-TEM imaging; conditions: 0.3 mg/mL, flash frozen in liquid ethane
Protocol: as §1

[6] = Evidence for symmetric self-assembly (AUC/CD/DLS/TEM/AFM/Rheology); conditions: Table 3
From the text: These peptides follow the following criteria for symmetric triple-helical self-assembly: • o. Peptides should embody the uninterrupted Xaa-Yaa-Gly tripeptide repeats of collagens • Peptides should be constructed to allow the formation of a polyproline-II helix. For this, their sequence should have a Gly at every third position. In addition, Pro residues should be favored at Xaa positions and Pro or Hyp residues at Yaa positions. Resulting peptides are collagen-mimetic peptides (CMPs). • i. Repulsive interstrand interactions should be installed to prevent the formation of the blunt-ended homotrimeric state. • CMPs are prone to forming blunt-ended triple helices, in general. This state should be destabilized to enable CMPs to associate with sticky-ends. • ii. The number of tripeptide repeats, nT, that constitute the CMP cannot be evenly divisible by three. • Satisfaction of this criterion is essential to obtain identical strand-offsets in the assembled state. […] This offset is nT residues for a peptide with nT tripeptide repeats. […] Thus, it is necessary to introduce attractive interstrand interactions to CMP designs that stabilize triple-helix formation only when they associate with nT-residue offsets.

POGPOGPOGPOGPKGPKGPKGPKGPOGPOGDOGDOGDOGDOG (PXGPXGPXGPXGPKGPKGPKGPKGPXGPXGDXGDXGDXGDXG; hydroxyproline residues; MOD_RES (2)..(2) 4Hyp; MOD_RES (5)..(5) 4Hyp; MOD_RES (8)..(8) 4Hyp; MOD_RES (11)..(11) 4Hyp; MOD_RES (26)..(26) 4Hyp; MOD_RES (29)..(29) 4Hyp; MOD_RES (32)..(32) 4Hyp; MOD_RES (35)..(35) 4Hyp; MOD_RES (38)..(38) 4Hyp; MOD_RES (41)..(41) 4Hyp) [OKD]
hydrogel formation ([1]; 4sbG series peptides): form hydrogels
G′ (storage modulus) ([1]; hydrogel at 1% concentration): 0.5 kPa
G″ (loss modulus) ([1]; hydrogel at 1% concentration): 0.05 kPa
Tm (° C.) I = 20 mM ([2]; CD at 226 nm, 0.6 mg/mL, 10 mM sodium phosphate pH 7.0, low ionic strength I = 20 mM): 49 °C
Tm (° C.) I = 200 mM ([2]; CD at 226 nm, 0.6 mg/mL, 10 mM sodium phosphate pH 7.0 with 180 mM NaCl, I = 200 mM): 39 °C
Tm (° C.) [2]: 49 °C
nanofiber length (AFM) [3]: up to 0.5 μm
nanofiber thickness/diameter (AFM) [3]: 1.2±0.2 nm and 1.2 nm
length of triple-helical stretches ([4]; TEM): ≤ 0.3 μm
Feature dimensions (nm), nanofiber diameter by TEM [4]: 2.3±0.4 nm
diameter of solvated nanofibers (cryo-TEM) [5]: 3.8±0.5 nm

POGPOGPOGPOGPKGPKGPKGPKGPOGPOGDOGDOGDOGDO (P[Hyp]GP[Hyp]GP[Hyp]GP[Hyp]GPKGPKGPKGPKGP[Hyp]GP[Hyp]GD[Hyp]GD[Hyp]GD[Hyp]GD[Hyp]) [Peptide 4sb-OKD]
Tm (° C.) [2]: 36 °C

POGPOGPOGPKGPKGPKGPOGPOGDOGDOGDOG (P[Hyp]GP[Hyp]GP[Hyp]GPKGPKGPKGP[Hyp]GP[Hyp]GD[Hyp]GD[Hyp]GD[Hyp]G) [Peptide 3sbG-OKD]
Tm (° C.) [2]: 33 °C

PKGPKGPKGPOGPOGDOGDOGDOGPOGPOGPOG (PKGPKGPKGP[Hyp]GP[Hyp]GD[Hyp]GD[Hyp]GD[Hyp]GP[Hyp]GP[Hyp]GP[Hyp]G) [Peptide 3sbG-KDO]
Tm (° C.) [2]: 26 °C

POGPOGPOGPKGPKGPKGPOGPOGDOGDOGDO (P[Hyp]GP[Hyp]GP[Hyp]GPKGPKGPKGP[Hyp]GP[Hyp]GD[Hyp]GD[Hyp]GD[Hyp]) [Peptide 3sb-OKD]
Tm (° C.) [2]: 20 °C

POGPOGPOGPKGPKGPKGPKGHcyOGPOGDOGDOGDOGDOGPOG (PXGPXGPXGPKGPKGPKGPKGXXGPXGDXGDXGDXGDXGPXG; homocysteine, hydroxyproline residues; MOD_RES (2)..(2) 4Hyp; MOD_RES (5)..(5) 4Hyp; MOD_RES (8)..(8) 4Hyp; MOD_RES (22)..(22) Homocysteine; MOD_RES (23)..(23) 4Hyp; MOD_RES (26)..(26) 4Hyp; MOD_RES (29)..(29) 4Hyp; MOD_RES (32)..(32) 4Hyp; MOD_RES (35)..(35) 4Hyp; MOD_RES (38)..(38) 4Hyp; MOD_RES (41)..(41) 4Hyp) [OKD2-h22]
Tm (° C.) [2]: 50 °C

POGPOGPOGPOrGPOrGPOrGPOGPOGDOGDOGDO (P[Hyp]GP[Hyp]GP[Hyp]GP[Orn]GP[Orn]GP[Orn]GP[Hyp]GP[Hyp]GD[Hyp]GD[Hyp]GD[Hyp]) [Peptide 3sb-OOrD]
Evidence (constructs that do not reliably self-assemble) [6]: no structure

PKGPKGPKGPOGPOGDOGDOGDOGPOGPOGPO (PKGPKGPKGP[Hyp]GP[Hyp]GD[Hyp]GD[Hyp]GD[Hyp]GP[Hyp]GP[Hyp]GP[Hyp]) [Peptide 3sb-KDO]
Tm (° C.) [2]: 13 °C

POGPOGPCysGPKGPKGPKGPKGPOGPOGDOGDOGDOGDOGPOG (PXGPXGPCGPKGPKGPKGPKGPXGPXGDXGDXGDXGDXGPXG; hydroxyproline residues; MOD_RES (2)..(2) 4Hyp; MOD_RES (5)..(5) 4Hyp; MOD_RES (23)..(23) 4Hyp; MOD_RES (26)..(26) 4Hyp; MOD_RES (29)..(29) 4Hyp; MOD_RES (32)..(32) 4Hyp; MOD_RES (35)..(35) 4Hyp; MOD_RES (38)..(38) 4Hyp; MOD_RES (41)..(41) 4Hyp) [OKD2-C8]
Tm (° C.) [2]: 45 °C

B1: POGPOGPO…cyOGPOGDOGDOGDOGDOGPOG / POGPOGPCysGPKGPKGPKGPKGPOGPOGDOGDOGDOGDOGPOG (peptide)
chain 1: PXGPXGPXGPKGPKGPKGPKGXXGPXGDXGDXGDXGDXGPXG
chain 2: PXGPXGPCGPKGPKGPKGPKGPXGPXGDXGDXGDXGDXGPXG
modifications: not fully specified; homocysteine-cysteine crosslinked heterodimer; MOD_RES (2)..(2) 4Hyp; MOD_RES (5)..(5) 4Hyp; MOD_RES (8)..(8) 4Hyp; MOD_RES (22)..(22) Homocysteine; MOD_RES (23)..(23) 4Hyp; MOD_RES (26)..(26) 4Hyp; MOD_RES (29)..(29) 4Hyp; MOD_RES (32)..(32) 4Hyp; MOD_RES (35)..(35) 4Hyp; MOD_RES (38)..(38) 4Hyp; MOD_RES (41)..(41) 4Hyp
Tm (° C.) [2]: 60 °C
Feature dimensions (nm), nanofiber diameter by TEM [4]: 2.4±0.4 nm
